According to patent publication US20210379110A1 (LENTIGEN TECHNOLOGY, published 2021):
One block for each binder: values may come before it.

Tests used:
[1] = target: T1, TSLPR-Fc peptide (R&D systems) (UniProt Q9HC73 25-231); assay: flow cytometry, CAR T cells stained with TSLPR-Fc then anti-Fc AF647
T1 construct: Bought reagent (R&D systems); also called TSLPR-Fc reagent; not shown: Fc part of the bought reagent
T1 sequence (looked up): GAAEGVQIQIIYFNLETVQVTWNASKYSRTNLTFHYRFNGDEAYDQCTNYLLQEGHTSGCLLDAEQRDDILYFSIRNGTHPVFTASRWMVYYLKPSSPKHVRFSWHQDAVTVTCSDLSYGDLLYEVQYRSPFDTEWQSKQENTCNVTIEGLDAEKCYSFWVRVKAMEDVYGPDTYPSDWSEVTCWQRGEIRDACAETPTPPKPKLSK
Procedure: Flow cytometric analysis was performed to detect the CAR molecule surface expression. Half million of harvested primary T cells were washed and stained with cold AutoMACS buffer supplemented with 0.5% bovine serum albumin (Miltenyi Biotec, Bergisch Gladbach, Germany), and resuspended in 200 ul Running Buffer before acquired by MACSQuant®10 Analyzer (Miltenyi Biotec Bergisch Gladbach, Germany). For CAR surface expression, TSLPR Fc, CD19Fc and CD22Fc peptide (R&D systems, Minneapolis, Minn.) were used followed anti Fc-AF647 (Jackson ImmunoResearch, West Grove, Pa.). T cell subtypes was further identified with anti-CD4 antibody conjugated to VioBlue fluorophore (Miltenyi Biotec Bergisch Gladbach, Germany). Dead cells in all studies were excluded by 7AAD staining (BD Biosciences, San Jose, Calif.). Flow data were analyzed with MACSQuantify software.
Specific detection of each scFv domain within the CAR structure was facilitated by CAR T cell staining with TSLPR-Fc peptide, or CD19-Fc peptide, followed by a secondary staining with anti-Fc AF647-labeled reagent, and fluorescence was detected in the APC channel. In CAR construct D0101, in which CD19 scFv was membrane-proximal and the TSLPR scFv was membrane-distal, the TSLPR scFv was detected at 44% of the transduced cells, and CD19 scFv was detected at 31%. In CAR construct D0102 with the reverse binder orientation (i.e. the TSLPR scFv membrane-proximal, and CD19 scFv membrane-distal), the detection levels were 85% and 75% for scFv TSLPR and CD19, respectively (FIG. 2).

[2] = target: T2, CD22-Fc peptide (R&D systems) (UniProt P20273 20-687); assay: flow cytometry, CAR T cells stained with CD22-Fc then anti-Fc AF647
T2 construct: Bought reagent (R&D systems); not shown: Fc part of the bought reagent
T2 sequence (looked up): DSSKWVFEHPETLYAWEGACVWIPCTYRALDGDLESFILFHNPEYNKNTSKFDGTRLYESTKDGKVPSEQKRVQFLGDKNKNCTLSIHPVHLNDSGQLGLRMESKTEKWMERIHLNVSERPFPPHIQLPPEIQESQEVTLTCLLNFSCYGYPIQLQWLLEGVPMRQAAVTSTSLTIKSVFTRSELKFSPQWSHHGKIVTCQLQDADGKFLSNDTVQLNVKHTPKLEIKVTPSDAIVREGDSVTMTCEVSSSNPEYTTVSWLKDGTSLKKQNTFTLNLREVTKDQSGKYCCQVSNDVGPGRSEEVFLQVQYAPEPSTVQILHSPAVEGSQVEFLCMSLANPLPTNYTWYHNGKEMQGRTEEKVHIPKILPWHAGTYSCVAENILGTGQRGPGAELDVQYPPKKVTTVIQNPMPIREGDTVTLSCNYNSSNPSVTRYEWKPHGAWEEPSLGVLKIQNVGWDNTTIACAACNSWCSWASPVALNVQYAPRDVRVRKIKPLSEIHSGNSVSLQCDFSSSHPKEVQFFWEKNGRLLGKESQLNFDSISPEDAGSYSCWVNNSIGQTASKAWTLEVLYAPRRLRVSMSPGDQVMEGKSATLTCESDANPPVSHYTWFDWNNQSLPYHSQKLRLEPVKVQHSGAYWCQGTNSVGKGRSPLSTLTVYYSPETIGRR
Procedure: For CAR surface expression, TSLPR Fc, CD19Fc and CD22Fc peptide (R&D systems, Minneapolis, Minn.) were used followed anti Fc-AF647 (Jackson ImmunoResearch, West Grove, Pa.). T cell subtypes was further identified with anti-CD4 antibody conjugated to VioBlue fluorophore (Miltenyi Biotec Bergisch Gladbach, Germany). Dead cells in all studies were excluded by 7AAD staining (BD Biosciences, San Jose, Calif.). Flow data were analyzed with MACSQuantify software.
To develop the tandem CD22 and TSLPR targeting CARs, CD22-directed scFv 16P17 was used in either membrane-proximal or membrane-distal orientation (construct D0103 and D0104, respectively). For TSLPR-targeting, scFv 3G11 was used. Surface expression of the tandem TSLPR×CD22 CAR incorporating the human ScFv 16P17 together with the TSLPR scFv 3G11, when the TSLPR scFv is positioned in the membrane-distal orientation (D0103), or in the membrane-proximal orientation (D0104) is shown in FIG. 5. Specific detection of each scFv domain within the CAR structure was facilitated by CAR T cell staining with TSLPR-Fc peptide, or CD22-Fc peptide, followed by a secondary staining with anti-Fc AF647-labeled reagent, and detected in the APC channel by flow cytometry. In CAR construct D0103, in which CD22 scFv was membrane-proximal and the TSLPR scFv was membrane-distal, the TSLPR scFv was detected at 26% of the transduced cells, and CD22 scFv was detected at 11%. In CAR construct D0104 with the opposite binder orientation (i.e. the CD22 scFv was membrane-distal, and the TSLPR scFv was membrane-proximal), the detection levels were 75% and 39% for scFv TSLPR and CD22, respectively (FIG. 5).
The surface expression of the tandem TSLPR×CD22 CAR incorporating the human ScFv m971 in membrane-proximal orientation (D0111), and in the membrane-distal orientation (D0112) is shown in FIG. 8. Specific detection of each scFv domain within the CAR structure was facilitated by CAR T cell staining with TSLPR-Fc peptide, or CD22-Fc peptide, followed by a secondary staining with anti-Fc AF647-labeled reagent and detection in the APC channel by flow cytometry. In CAR construct D0111, in which CD22 scFv was membrane-proximal and the TSLPR scFv was membrane-distal, the TSLPR scFv was detected at 34% of the transduced cells, and CD22 scFv was detected at 11%.

- percent of transduced T cells stained by antigen-Fc [1]: 75%
- percent of transduced T cells stained by antigen-Fc [2]: 39%
B1: D0104 (EF-1a-CD22 (16P17)-TSLPR CD8 BBz) (other)
chain: QVQLQQSGPGLVKHSQTLSLTCAISGDSVSSNSAAWNWIRQSPSRGLEWLGRTYYRSKWYNDYAVSVKSRITINPDTSKNQFSLQLNSVTPEDTAVYYCAQEVEPHDAFDIWGQGTMVTVSSGGGGSGGGGSGGGGSDIQMTQSPSSVYASVGDKVTITCRASQDVSGWLAWYQQKPGLAPQLLISGASTLQGEVPSRFSGSGSGTDFTLTISSLQPEDFATYYCQQAKYFPYTFGQGTKLEIKGGGGSGGGGSGGGGSGGGGSGGGGSQVTLKESGPGILKPSQTLSLTCSFSGFSLSTSGMGVGWIRQPSGKGLEWLAHIWWDDDKYYNPSLKSQLTISKDTSRNQVFLKITSVDTADTATYYCSRRPRGTMDAMDYWGQGTSVTVSSGGGGSGGGGSGGGGSDIVMTQAASSLSASLGDRVTISCRASQDISKYLNWYQQKPDGTVKLLIYYTSRLHSGVPSRFSGSGSGTDYSLTIRNLEQEDIATYFCQQVYTLPWTFGGGTKLEIKAAATTTPAPRPPTPAPTIASQPLSLRPEACRPAAGGAVHTRGLDFACDIYIWAPLAGTCGVLLLSLVITLYCKRGRKKLLYIFKQPFMRPVQTTQEEDGCSCRFPEEEEGGCELRVKFSRSADAPAYQQGQNQLYNELNLGRREEYDVLDKRRGRDPEMGGKPRRKNPQEGLYNELQKDKMAEAYSEIGMKGERRRGKGHDGLYQGLSTATKDTYDALHMQALPPR
notes: Tandem chimeric antigen receptor on human primary T cells: leader, CD22 scFv 16P17 (membrane-distal), (GGGGS)5, TSLPR scFv 3G11, CD8 hinge/TM, 4-1BB, CD3 zeta; also called CAR 22-TSLPR BBz; tandem D0104 CD22×TSLPR CAR

- percent of transduced T cells stained by antigen-Fc [1]: 26%
- percent of transduced T cells stained by antigen-Fc [2]: 11%
B2: D0103 (EF-1a-TSLPR-CD22 (16P17) CD8 BBz) (other)
chain: QVTLKESGPGILKPSQTLSLTCSFSGFSLSTSGMGVGWIRQPSGKGLEWLAHIWWDDDKYYNPSLKSQLTISKDTSRNQVFLKITSVDTADTATYYCSRRPRGTMDAMDYWGQGTSVTVSSGGGGSGGGGSGGGGSDIVMTQAASSLSASLGDRVTISCRASQDISKYLNWYQQKPDGTVKLLIYYTSRLHSGVPSRFSGSGSGTDYSLTIRNLEQEDIATYFCQQVYTLPWTFGGGTKLEIKGGGGSGGGGSGGGGSGGGGSGGGGSQVQLQQSGPGLVKHSQTLSLTCAISGDSVSSNSAAWNWIRQSPSRGLEWLGRTYYRSKWYNDYAVSVKSRITINPDTSKNQFSLQLNSVTPEDTAVYYCAQEVEPHDAFDIWGQGTMVTVSSGGGGSGGGGSGGGGSDIQMTQSPSSVYASVGDKVTITCRASQDVSGWLAWYQQKPGLAPQLLISGASTLQGEVPSRFSGSGSGTDFTLTISSLQPEDFATYYCQQAKYFPYTFGQGTKLEIKAAATTTPAPRPPTPAPTIASQPLSLRPEACRPAAGGAVHTRGLDFACDIYIWAPLAGTCGVLLLSLVITLYCKRGRKKLLYIFKQPFMRPVQTTQEEDGCSCRFPEEEEGGCELRVKFSRSADAPAYQQGQNQLYNELNLGRREEYDVLDKRRGRDPEMGGKPRRKNPQEGLYNELQKDKMAEAYSEIGMKGERRRGKGHDGLYQGLSTATKDTYDALHMQALPPR
notes: Tandem chimeric antigen receptor on human primary T cells: leader, TSLPR scFv 3G11 (membrane-distal), (GGGGS)5, CD22 scFv 16P17, CD8 hinge/TM, 4-1BB, CD3 zeta; also called CAR TSLPR-22 BBz; tandem D0103 TSLPR×CD22 CAR

- percent of transduced T cells stained by antigen-Fc [1]: 34%
- percent of transduced T cells stained by antigen-Fc [2]: 11%
B3: D0111 (EF-1a-TSLPR-CD22 (m971) CD8 BBz) (other)
chain: QVTLKESGPGILKPSQTLSLTCSFSGFSLSTSGMGVGWIRQPSGKGLEWLAHIWWDDDKYYNPSLKSQLTISKDTSRNQVFLKITSVDTADTATYYCSRRPRGTMDAMDYWGQGTSVTVSSGGGGSGGGGSGGGGSDIVMTQAASSLSASLGDRVTISCRASQDISKYLNWYQQKPDGTVKLLIYYTSRLHSGVPSRFSGSGSGTDYSLTIRNLEQEDIATYFCQQVYTLPWTFGGGTKLEIKGGGGSGGGGSGGGGSGGGGSGGGGSQVQLQQSGPGLVKPSQTLSLTCAISGDSVSSNSAAWNWIRQSPSRGLEWLGRTYYRSKWYNDYAVSVKSRITINPDTSKNQFSLQLNSVTPEDTAVYYCAREVTGDLEDAFDIWGQGTMVTVSSGGGGSGGGGSGGGGSDIQMTQSPSSLSASVGDRVTITCRASQTIWSYLNWYQQRPGKAPNLLIYAASSLQSGVPSRFSGRGSGTDFTLTISSLQAEDFATYYCQQSYSIPQTFGQGTKLEIKAAATTTPAPRPPTPAPTIASQPLSLRPEACRPAAGGAVHTRGLDFACDIYIWAPLAGTCGVLLLSLVITLYCKRGRKKLLYIFKQPFMRPVQTTQEEDGCSCRFPEEEEGGCELRVKFSRSADAPAYQQGQNQLYNELNLGRREEYDVLDKRRGRDPEMGGKPRRKNPQEGLYNELQKDKMAEAYSEIGMKGERRRGKGHDGLYQGLSTATKDTYDALHMQALPPR
notes: Tandem chimeric antigen receptor on human primary T cells: leader, TSLPR scFv 3G11 (membrane-distal), (GGGGS)5, CD22 scFv m971, CD8 hinge/TM, 4-1BB, CD3 zeta; also called CAR TSLPR-22m971 BBz
